Measured values from patent US20180087118.

B1: Human KDM4A 1-347 (His6-tagged, expressed in E. coli from pET28a) (protein)
chain: MASESETLNPSARIMTFYPTMEEFRNFSRYIAYIESQGAHRAGLAKVVPPKEWKPRASYDDIDDLVIPAPIQQLVTGQSGLFTQYNIQKKAMTVREFRKIANSDKYCTPRYSEFEELERKYWKNLTFNPPIYGADVNGTLYEKHVDEWNIGRLRTILDLVEKESGITIEGVNTPYLYFGMWKTSFAWHTEDMDLYSINYLHFGEPKSWYSVPPEHGKRLERLAKGFFPGSAQSCEAFLRHKMTLISPLMLKKYGIPFDKVTQEAGEFMITFPYGYHAGFNHGFNCAESTNFATRRWIEYGKQAVLCSCRKDMVKISMDVFVRKFQPERYKLWKAGKDNTVIDHTLPT
B2: Human KDM4B 1-348 (His6-tagged, expressed in E. coli from pET28a) (protein)
chain: MGSEDHGAQNPSCKIMTFRPTMEEFKDFNKYVAYIESQGAHRAGLAKIIPPKEWKPRQTYDDIDDVVIPAPIQQVVTGQSGLFTQYNIQKKAMTVGEYRRLANSEKYCTPRHQDFDDLERKYWKNLTFVSPIYGADISGSLYDDDVAQWNIGSLRTILDMVERECGTIIEGVNTPYLYFGMWKTTFAWHTEDMDLYSINYLHFGEPKSWYAIPPEHGKRLERLAIGFFPGSSQGCDAFLRHKMTLISPIILKKYGIPFSRITQEAGEFMITFPYGYHAGFNHGFNCAESTNFATLRWIDYGKVATQCTCRKDMVKISMDVFVRILQPERYELWKQGKDLTVLDHTRPT

Experiments:
[1] = target: T1, H-TKQTARK(Me3)STGGKAPR-OH (TR-15, H3 3-17 K9me3 peptide)
T1 chain: TKQTARKSTGGKAPR

[2] = target: H3 31-41 K36me3 peptide, P68431

Protein	Km (µM), FDH-coupled demethylase assay [1] [µM]	Km (µM), FDH-coupled demethylase assay [2] [µM]
B1	92.5	170
B2	88.3	138
